From paper PMC2913408 (Biochemistry, 2010)

How the values were obtained:
purified protein [1] = substrate: O=C(O)/C=C/C=C(\O)C(=O)O; experiment: purified protein; assay type: biochemical, Chloroflexus aurantiacus; conditions: 10 mM potassium phosphate, pH 7.3, 24 °C
purified protein [2] = substrate: O=C(O)/C(O)=C/c1ccccc1; experiment: purified protein; conditions: 10 mM potassium phosphate, pH 7.3, 24 °C

B1: hh4-OT (heterohexamer 4-oxalocrotonate tautomerase) (Chloroflexus aurantiacus J-10-fl) (protein)
chain 1: MLLLRITMLEGRSTEQKAELARALSAAAAAAFDVPLAEVRLIIQEVPPTHWTVGGISMAELRQQASTSTQGQ
chain 2: PMLEVFYSGDRPPDRTRKQAFAAEASAIFQRVIGTPPGRLQLIIQIVSPENTLAVIDLDRPDSDTTAEPDQQ
Question: B1 was tested. Which Km (purified protein [1]) did it give?
Answer: 70 ± 8 µM

Question: And the kcat (purified protein [1])?
Answer: 3000 ± 100 s⁻¹

Question: And the kcat/Km (purified protein [1])?
Answer: 4.3e+07 M⁻¹ s⁻¹

Question: What about the Km (purified protein [2]) of the same protein?
Answer: 121 ± 20 µM

Question: And the kcat (purified protein [2])?
Answer: 13 s⁻¹

Question: What about the kcat/Km (purified protein [2]) of the same protein?
Answer: 110000 M⁻¹ s⁻¹
